Fold effect on peptide binding relative to wild-type data for one substance are collected here from patent US20070212700A1, “Methods of using and analyzing biological sequence data” (THE BOARD OF REGENTS OF THE UNIVERSITY OF TEXAS SYSTEM, priority 2005, published 2007).

The test has as its target PPxY-containing peptide. Nature of the test: isothermal titration calorimetry, ratio of equilibrium dissociation constants (mutant vs wild-type Nedd4.3 WW domain).

On to “Nedd4.3 WW domain L3A mutant (from UniProt Q62940 459-492)”, for which the fold effect on peptide binding relative to wild-type was found to be 5.15 fold.
